Results from the supplement of paper PMC12855868.

B1: library; numbered along this chain (parent)
chain: MAAAGGARLLRAASAVLGGPAGRWLHHAGSRAGSSGLLRNRGPGGSAEASRSLSVSARARSSSEDKITVHFINRDGETLTTKGKVGDSLLDVVVENNLDIDGFGACEGTLACSTCHLIFEDHIYEKLDAITDEENDMLDLAYGLTDRSRLGCQICLTKSMDNMTVRVPETVADARQSIDVGKTS

Variants of: B1
Test: scaled log2 fold change in cell abundance, elesclomol vs control (0 = silent mean, 1 = nonsense mean) (scaled log2 ratio); higher = higher viability under elesclomol (loss of FDX1 cuproptosis function)
Conditions: glucose 10 mM
[1] = with ABC1 FDX1 KO, elesclomol 5 nM, 14 days
[2] = with HEK293T FDX1 KO, elesclomol 40 nM, 11 days
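Note: variant abundance is its share of total variant reads in each endpoint sample, from next-generation sequencing of the integrated ORF PCR-amplified out of genomic DNA.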

Variant	scaled log2 fold change [1]	scaled log2 fold change [2]
MAAAGGARLLRAASAVLGGPAGRWLHHAGSRAGSSGLLRNRGPGGSAEASRSLSVSARARSSSEDKITVHFINRDGETLTTKGKVGDSLLDVVVENNLDIDGFGACEGTLACSTCHLIFEDHIYEKLDAITDEENDMLDLAYGLTDRSRLGCQICLTKSMDSMTVRVPETVADARQSIDVGKTS	0.162	
MAAAGGARLLRAASAVLGGPAGRWLHHAGSRAGSSGLLRNRGPGGSAEASRSLSVSARARSSSEDKITVHFINRDGETLTTKGKVGDSLLDVVVENNLDIDGFGACEGTLACSTCHLIFEDHIYEKLDAITDEENDMLDLAYGLTDRSRLGCQICLTKSMDYMTVRVPETVADARQSIDVGKTS	0.0965	0.0713
MAAAGGARLLRAASAVLGGPAGRWLHHAGSRAGSSGLLRNRGPGGSAEASRSLSVSARARSSSEDKITVHFINRDGETLTTKGKVGDSLLDVVVENNLDIDGFGACEGTLACSTCHLIFEDHIYEKLDAITDEENDMLDLAYGLTDRSRLGCQICLTKSMDWMTVRVPETVADARQSIDVGKTS	0.1	0.831
MAAAGGARLLRAASAVLGGPAGRWLHHAGSRAGSSGLLRNRGPGGSAEASRSLSVSARARSSSEDKITVHFINRDGETLTTKGKVGDSLLDVVVENNLDIDGFGACEGTLACSTCHLIFEDHIYEKLDAITDEENDMLDLAYGLTDRSRLGCQICLTKSMDVMTVRVPETVADARQSIDVGKTS	0.0601	0.0858
MAAAGGARLLRAASAVLGGPAGRWLHHAGSRAGSSGLLRNRGPGGSAEASRSLSVSARARSSSEDKITVHFINRDGETLTTKGKVGDSLLDVVVENNLDIDGFGACEGTLACSTCHLIFEDHIYEKLDAITDEENDMLDLAYGLTDRSRLGCQICLTKSMDTMTVRVPETVADARQSIDVGKTS	-0.0302	0.362
MAAAGGARLLRAASAVLGGPAGRWLHHAGSRAGSSGLLRNRGPGGSAEASRSLSVSARARSSSEDKITVHFINRDGETLTTKGKVGDSLLDVVVENNLDIDGFGACEGTLACSTCHLIFEDHIYEKLDAITDEENDMLDLAYGLTDRSRLGCQICLTKSMDNATVRVPETVADARQSIDVGKTS	-0.185	
MAAAGGARLLRAASAVLGGPAGRWLHHAGSRAGSSGLLRNRGPGGSAEASRSLSVSARARSSSEDKITVHFINRDGETLTTKGKVGDSLLDVVVENNLDIDGFGACEGTLACSTCHLIFEDHIYEKLDAITDEENDMLDLAYGLTDRSRLGCQICLTKSMDNCTVRVPETVADARQSIDVGKTS	-0.512	0.319
MAAAGGARLLRAASAVLGGPAGRWLHHAGSRAGSSGLLRNRGPGGSAEASRSLSVSARARSSSEDKITVHFINRDGETLTTKGKVGDSLLDVVVENNLDIDGFGACEGTLACSTCHLIFEDHIYEKLDAITDEENDMLDLAYGLTDRSRLGCQICLTKSMDNDTVRVPETVADARQSIDVGKTS	1.16	0.514
MAAAGGARLLRAASAVLGGPAGRWLHHAGSRAGSSGLLRNRGPGGSAEASRSLSVSARARSSSEDKITVHFINRDGETLTTKGKVGDSLLDVVVENNLDIDGFGACEGTLACSTCHLIFEDHIYEKLDAITDEENDMLDLAYGLTDRSRLGCQICLTKSMDNETVRVPETVADARQSIDVGKTS	0.522	0.691
